# According to patent publication US6719976B1, “Peptide-based immunotherapeutic agent for treating allergic diseases” (Meiji Milk Products Co., Ltd., priority 1996, dated 2004):
# B1: Cry j 1: major cedar pollen allergen, 353 amino acids, extracted and purified from cedar pollen (protein)
# chain: DNPIDSCWRGDSNWAQNRMKLADCAVGFGSSTMGGKGGDLYTVTNSDDDPVNPAPGTLRYGATRDRPLWIIFSGNMNIKLKMPMYIAGYKTFDGRGAQVYIGNGGPCVFIKRVSNVIIHGLYLYGCSTSVLGNVLINESFGVEPVHPQDGDALTLRTATNIWIDHNSFSNSSDGLVDVTLTSTGVTISNNLFFNHHKVMLLGHDDAYSDDKSMKVTVAFNQFGPNCGQRMPRARYGLVHVANNNYDPWTIYAIGGSSNPTILSEGNSFTAPNESYKKQVTIRIGCKTSSSCSNWVWQSTQDVFYNGAYFVSSGKYEGGNIYTKKEAFNVENGNATPQLTKNAGVLTCSLSKRC
# Key:
# human IgE antibody = test: Reactivity of the multi-epitope peptides with human IgE antibody (fluorescence plate assay); format: binding
# Description: (§1) The six multi-epitope peptides (C.A.#1 through C.A.#6) obtained in Example 6 were dissolved in 0.2 M acetate buffer solution (pH 4.5). The solution was dispensed in quantities of 0.1 ml/well in a black plate (manufactured by Dainihon Pharmaceutical Co., Ltd.) then allowed to stand at 4° C. overnight. After the antigen solution was removed, the wells were washed three times with a washing solution and the serum (4-fold dilution) from 29 patients with cedar pollinosis and healthy subjects were each added to separate wells. The system was then reacted at 37° C. for 4 hours. After the sera were removed, the wells were washed three times with a washing solution then reacted with anti-human IgE antibody (made by Pharmacia Inc.) at room temperature overnight. After washing three times with a washing solution, a substrate solution containing 0.1 mM 4-methylumbelliferyl-, β-D-galacto-pyranoside/0.01 M phosphate buffer (pH 7.0), 0.1 M NaCl, 1 mM MgCl2, 0.1% NaN, and 0.1% BSA was added, and the solution was incubated at 37° C. for 2 hours. A solution of 0.1 M glycine/NaOH (pH 10.3) was added to the wells to terminate the reaction. Fluorescent intensity was measured using a fluorophotometer (Labsystems). For positive control to each multi-epitope peptide, biotin-labeled rabbit anti-d epitope IgG and peroxidase-labeled streptoavidin (made by Pierce Inc.) were reacted.
# [1] = tested on: T cell line of each patient specifically recognizing Cry j 1 or Cry j 2; test: T cell line proliferation response to overlapping peptides ([3H] thymidine uptake); format: cell-based, human; conditions: 18 patients with cedar pollinosis; stimulation index 2 or more
# Description: Peripheral lymphocytes from 18 patients with cedar pollinosis were stimulated by cedar pollen allergen Cry j 1 or Cry j 2to establish the T cell line of each patient capable of specifically recognizing the respective allergen.
# A mixture of 5×10^4 cells of the autologous B cell line treated with mitomycin C, 2 μM of an overlapping peptide, and 2×10^4 cells of the T cell line was incubated for 2 days in RPMI-1640 medium supplemented with 0.2 ml of 15% serum on a 96-well culture plate. After 0.5 μCi [^3H] thymidine was added to the medium, incubation was continued for a further 18 hours. After the cells were harvested on a glass filter using a cell harvester, the level of [^3H] thymidine taken up into the cells was determined with a liquid scintillation counter. If the stimulation index is 2 or more, we consider that the added peptide is recognized as an antigenic peptide. The stimulation index means a value obtained by dividing the level of [^3H] thymidine taken up into the cells when the peptide was added by the level of [^3H] thymidine taken up into the cells when no peptide was added.
# The HLA class II type is considered to vary in every patient. It is thus assumed that a T cell epitope to be recognized would vary depending on the HLA class II type. For this reason, the antigenic peptide that the patients recognized was mapped for the individual patient. […] On the allergen molecule, there are both regions that can be readily recognized and regions that can hardly be recognized, as a T cell epitope, depending on individuals. Moreover, since the proliferation rate of T cells varies depending on a T cell epitope, the epitope map alone makes it difficult to determine what antigenic peptide should be chosen to design the multi-epitope peptide.
# [2] = tested on: rabbit anti-d epitope IgG; test: Positive control reactivity with rabbit anti-d epitope IgG; format: binding; conditions: blank: 112
# Description: as §1
# [3] = tested on: spleen cells of CBF1 mice immunized with rCry j 2; test: Identifying T cell epitopes in CBF1 mice (spleen cell [3H] thymidine uptake); format: cell-based, mouse; conditions: peptides 0.115 μM; Cry j 1 50 μg/ml; rCry j 2 0.3 μg/ml
# Description: Eight-week-old male CBF1 mice were boosted (i.p.) three times with 10 μg of recombinant Cry j 2 (rCry j 2) at intervals of two weeks together with an adjuvant (Imject Alum, manufactured by Pierce Inc.). One week after the final booster, the spleen cells (5×10^6 cells) were cultured together with each of the 74 kinds of Cry j 2 overlapping peptides (0.115 μM) consisting of 15 residues in 0.2 ml RPMI medium (supplemented with 10% FCS, 2 mM L-glutamine, 50 U/ml penicillin and 50 μg/ml streptomycin) in each well of a 96-well plate(manufactured by Falcon Inc.). For control, the reactivities with PBS, 50 μg/ml of Cry j 1, and 0.3 μg/ml of rCry j 2 were also observed. Each reagent was distributed in three wells and incubated at 37° C. for 3 days in 5% CO2. For the last 6 hours, pulse labeling was performed with 0.5 μCi/well of [^3H] thymidine. The cells were collected on a glass filter using a cell harvester (Inoteck, Bertold Japan Co., Ltd.). After drying, the level of [^3H] thymidine taken up into the cells was determined using a liquid scintillation counter (TRI-CARB 4530, Packard Japan KK).
# CBF1 mice = test: Inducing immune tolerance by administering cedar pollen allergen to mice; format: in vivo; conditions: 300 μg/mouse s.c. twice, then sensitized with 100 μg Cry j 1 + Alum; compared to PBS control group
# Description: The detailed mechanism in hyposensitization therapy by which cedar pollen allergen is administered for the treatment is yet unknown. To clarify this mechanism, tests were conducted using mice. Cedar pollen allergen Cry j 1 was subcutaneously administered twice to five CBF1 female mice at intervals of 5 days in a dose of 300 μg/mouse. For control, the same dose of PBS was subcutaneously given to five other female mice. Five days later, the animals were sensitized by subcutaneous injection of 100 μg Cry j 1 together with Alum adjuvant. Ten days later, the lymphocytes were isolated to pool them as the lymphocytes from the control group and as the lymphocytes from the Cry j 1-administered mice. Cry j 1 was added to the pooled lymphocytes in doses of 0, 50 and 150 μg/ml. Incubation was performed for 3 days to collect the culture supernatant. In the control (PBS-administered) mouse group, IL-2 production increased as the concentration of Cry j 1 increased from 0 to 50 and 150 μg/ml. […] The results verify that currently implemented hyposensitization therapy using the cedar pollen allergen is efficacious.
molecule,measurement,setting,value
B1,fluorescent intensity (human IgE reactivity),human IgE antibody; 14 subjects of 29,≥ 100
same,fluorescent intensity (human IgE reactivity),human IgE antibody; five subjects of 29,nine
same,fluorescent intensity (human IgE reactivity),human IgE antibody; four subjects of 29,≥ 10
same,fluorescent intensity (human IgE reactivity),human IgE antibody; six subjects of 29,"≥ 1,000"
same,"number of T cell epitopes on the molecule that each patient recognized, average",[1],9.8
same,fluorescent intensity with rabbit anti-d epitope peptide IgG,[2],230
same,reactivity of spleen cells ([3H] thymidine uptake),[3],did not react
same,IL-2 production of lymphocytes restimulated with Cry j 1,CBF1 mice,obviously reduced
